Measured values as given in patent US20220195021A1 (ANWITA BIOSCIENCES, published 2022).
Substitutions are numbered along the chain they refer to.

B1: anti-HSA VHH antibody A11 fused onto a human IgG1-Fc (Fc fusion)
chain: QVQVVESGGGLVQPGGSLRLSCAASGMSSANVMGWYRQVPGNQRELVARITSSGRTMYSDSVLGRFTISRGGAGNTADLQMNMLKPEDTAIYICNIRILGSFDPDSGYWGQGTQVTVSS
notes: Llama VHH; also called Ab A11; not shown: human IgG1 Fc
B2: anti-HSA VHH antibody A18 fused onto a human IgG1-Fc (Fc fusion)
chain: QEQLVESGGGLVQAGGSLRLSCAASTRTINIYAMAWFRQAPGKEREFVAAVTWSGLTRDYADSVKGRFTISRDNPKNTLYLQMNSLQPEDTAVYYCAAGRYSTGTHDYDYWGQGTQVTVSS
notes: Llama VHH; also called Ab A18; not shown: human IgG1 Fc
B3: anti-HSA VHH antibody A16 fused onto a human IgG1-Fc (Fc fusion)
chain: QVQLVESGGGLVQAGGTLRLSCTASGSTFRGNGMAWHRQAPGKEREFVAYMGMTDRITYAESVKGRFTLSRDDAKNRVYLHMNNLEVEDTAVYYCTAFGSWGQGTQVTVSS
notes: Llama VHH; also called Ab A16; not shown: human IgG1 Fc
B4: anti-HSA VHH antibody A17 fused onto a human IgG1-Fc (Fc fusion)
chain: QVQLVESGGELVQAGGSLRLSCVVSGRTFRTRTMGWFRQAPGKEREYVAHISANGPITDYSDSVKGRFAISRDNAKNTVNLQMNSLKPEDTAVYYCALHNGIGVRTVPSQYDSWGQGTQVTVSS
notes: Llama VHH; also called Ab A17; not shown: human IgG1 Fc
B5: anti-HSA VHH antibody A1 fused onto a human IgG1-Fc (Fc fusion)
chain: QVQLVESGGGLVQPGGSLRLSCAASGRIFSTYAMGWFRQPPGKEREFVASINRSGDSTYYADSVKGRFTISRDNAKNTGYLQMSSLKPEDTAVYYCAADSDGIGWFNSFEYDYWGRGTQVTVSS
notes: Llama VHH; also called Ab A1; not shown: human IgG1 Fc
B6: anti-HSA VHH antibody A4 fused onto a human IgG1-Fc (Fc fusion)
chain: B5 chain with N74D, T78M
notes: Llama VHH; also called Ab A4; not shown: human IgG1 Fc
B7: anti-HSA VHH antibody A2 fused onto a human IgG1-Fc (Fc fusion)
chain: QVQLVESGGGLVQAGGSLRLSCAASGRSVSLYHVGWFRHTPGKEREFVAATAWHDGSTSYADSVKGRFTISRNNAKNTVYLQMNSLQPEDTAVYYCAGEAKLGGIYSRWRDYEYWGQGTQVTVSS
notes: Llama VHH; also called Ab A2; not shown: human IgG1 Fc
B8: anti-HSA VHH antibody A3 fused onto a human IgG1-Fc (Fc fusion)
chain: QVQLVESGGGLVQAGGSLRLSCAASGRTFSIYDMGWFRQAPGKEREFVAATNLRGVSTRYADSVKGRFTISGDNAKNTVSLQMNSLIPEDTAVYYCAAAVSNWLAKDPSAYSYWGQGTQVTVSS
notes: Llama VHH; also called Ab A3; not shown: human IgG1 Fc
B9: anti-HSA VHH antibody A6 fused onto a human IgG1-Fc (Fc fusion)
chain: B7 chain
notes: Llama VHH; also called Ab A6; not shown: human IgG1 Fc
B10: anti-HSA VHH antibody A9 fused onto a human IgG1-Fc (Fc fusion)
chain: QVQLVESGGGLVQAGGSLRLSCAASGRTFSNDAMGWFRQAPGKERVFVATISWKSSTYYADSVKGRFTISRDHAKNTVYLQMNNLKPEDTAVYYCVADPYGLGFNPSDYDYWGQGTQVTVSS
notes: Llama VHH; also called Ab A9; not shown: human IgG1 Fc
B11: anti-HSA VHH antibody A15 fused onto a human IgG1-Fc (Fc fusion)
chain: QVQLVESGGGLVQPGGSLRLSCAASGFAFRGFGMSWVRQAPGKGFEWVSSINNGGSDTRYADSVKGRFTISRDNARNTLYLQMNSLKPEDTAVYYCAIGGPGASPSGQGTQVTVSS
notes: Llama VHH; also called Ab A15; not shown: human IgG1 Fc
B12: anti-HSA VHH antibody A12 fused onto a human IgG1-Fc (Fc fusion)
chain: B11 chain with Q1E, A28T, Q39R, G44E, N53G, S56E, A61S, T91S, S104T, Q108P
notes: Llama VHH; also called Ab A12; not shown: human IgG1 Fc
B13: anti-HSA VHH antibody A14 fused onto a human IgG1-Fc (Fc fusion)
chain: B11 chain with A28T, N53S, S56E, A61S, P101A, S104T
notes: Llama VHH; also called Ab A14; not shown: human IgG1 Fc
B14: humanized anti-HSA VHH antibody A20 fused onto a human IgG1-Fc (Fc fusion)
chain: B11 chain with L11V, F45L, R59Y, A75S, R76K, K87R, P88A
notes: also called Ab A20; anti-HSA A20; not shown: human IgG1 Fc
B15: anti-HSA VHH antibody A13 fused onto a human IgG1-Fc (Fc fusion)
chain: QVQLVESGGGSVQPGGSLRLSCAASGRNFNPMGWFRQAPGKQRESVAAIGTDGSTKYADSVKGRFTISRDNGKNTVYLQMNSLKSEDTAVYYCNVGGWGISWFPWGRGTQVSVSS
notes: Llama VHH; also called Ab A13; not shown: human IgG1 Fc
B16: anti-HSA VHH antibody A7 fused onto a human IgG1-Fc (Fc fusion)
chain: QVQLVESGGGLVQAGGSLRLSCAASGRSVSLYHVGWFRHTPGKEREFVAATAWHDGSTSYADSVKGRFTISRDSAKNTVFLQMSSLQPEDTAVYYCAADPGGSSWSQPWYDYWGQGTQVTVSS
notes: Llama VHH; also called Ab A7; not shown: human IgG1 Fc
B17: anti-HSA VHH antibody A10 fused onto a human IgG1-Fc (Fc fusion)
chain: QVQLVESGGGLVQAGGSLRLSCLASGGTFSSYAMGWFRQAPGKEREFVAAISWKSSTYYTDSVKGRFTISRDNAKNTVYLQMNSLTPEDTAVYYCAADPTGSYDQPWYDYWGQGTQVTVSS
notes: Llama VHH; also called Ab A10; not shown: human IgG1 Fc
B18: anti-HSA VHH antibody A8 fused onto a human IgG1-Fc (Fc fusion)
chain: QVQLVESGGGLVQPGGSLRLSCAASGSTWSINTLAWYRQAPGKQRDLVARISSGGSTHYADSVKGRFTVSRDNAENTLVLQMNSLKPEDTAVYYCYAQSTWYPPSWGQGTQVTVSS
notes: Llama VHH; also called Ab A8; not shown: human IgG1 Fc
B19: humanized anti-HSA VHH antibody A19 fused onto a human IgG1-Fc (Fc fusion)
chain: B18 chain with Q1E, H58Y, V69I, A74S, E75K, V79Y, K86R, P87A, Q111L
notes: also called Ab A19; anti-HSA A19; not shown: human IgG1 Fc

target: T1, human serum albumin (human, UniProt P02768 25-609); assay: BLI (OCTET RED96), VHH-IgG1-Fc on protein A biosensor, pH 7.4
T1 construct: The immunogen was rice-expressed HSA (Sigma A9731); also called HSA
Method: (§1) The VHH anti-albumin antibodies were evaluated for their ability to interact with human, monkey, and mouse serum albumins at different pH values, e.g., pH 7.4 or pH 5.5 to simulate the pH of an acidified endosome. Briefly, a VHH anti-albumin antibody was fused onto a human IgG1-Fc. The expressed protein was then loaded onto a protein A biosensor (OCTET® RED96). The biosensor was in turn dipped into a solution containing a human, monkey, or mouse serum at three or more different concentrations, e.g., 50, 100, or 200 nM, or 100, 200, or 400 nM. Primary experimental data was analyzed with global fitting to determine a dissociation constant (KD). The results are summarized in Table 7 (pH 5.5) and Table 8 (pH 7.4), wherein A represents a value no greater than 10 nM, B represents a value greater than 10 nM but no greater than 100 nM, and C represents a value greater than 100 nM but no greater than 500 nM.

Binder	binding result
B1	no binding
B2	no binding

target: T2, monkey serum albumin (monkey (cynomolgus monkey in paragraph 472), UniProt A2V9Z4 25-608); assay: as above
T2 construct: also called cynomolgus monkey serum albumin; CySA
Method: as §1

Binder	binding result
B1	no binding
B3	no binding
B4	no binding
B2	no binding

target: T3, mouse serum albumin (mouse, UniProt P07724 25-608); assay: as above
T3 construct: also called MuSA
Method: as §1

Binder	binding result
B5	no binding
B6	no binding
B7	no binding
B8	no binding
B9	no binding
B10	no binding
B1	no binding
B11	no binding
B12	no binding
B13	no binding
B14	no binding
B15	no binding
B3	no binding
B4	no binding
B2	no binding
B16	no binding
B17	no binding

target: T1, human serum albumin; assay: BLI (OCTET RED96), VHH-IgG1-Fc on protein A biosensor, albumin in solution, pH 5.5; grade legend in paragraph 477
Method: as §1

Binder	Kd [nM]
B18	≤ 10

target: T1, human serum albumin; assay: BLI (OCTET RED96), VHH-IgG1-Fc on protein A biosensor, albumin in solution, pH 7.4; grade legend in paragraph 477
Method: as §1

Binder	Kd [nM]
B5	≤ 10
B7	≤ 10
B8	≤ 10
B9	≤ 10
B10	≤ 10

target: T2, monkey serum albumin; assay: as above
Method: as §1

Binder	Kd [nM]
B19	≤ 10
B5	≤ 10
B6	≤ 10
B7	≤ 10
B9	≤ 10
